From US20060194321A1, “Directed differentiation of embryonic stem cells and uses thereof” (priority 2005, published 2006)
Entries after “also recorded” stand apart in the source; their conditions may differ.

Tested on: Human embryonic stem cell 3 (hES3)
Test: pdx-1 expression by quantitative RT-PCR in embryoid bodies in 3D […] (initiation protocol)
Type: cell-based
Details: factor included in or omitted from the early/late factor cocktail, day 20
Procedure: Human embryonic stem cell 3 (hES3) were subjected to a multi-step differentiation protocol, as outlined in FIG. 2. The embryonic stem cells were cultured as embryoid bodies suspended in 3D in […]™. The cells were cultured for 10 days in medium containing the early factors and then for 10 days in medium containing the late factors. Following culture, cells were assayed for expression of pdx-1.
To establish a baseline for comparison, human embryonic stem cells were differentiated, as described above, in 3-dimensional culture in […]™ for 20 days. […] RNA was isolated and analyzed for pdx-1 and actin expression by RT-PCR. Data were standardized in comparison to actin expression, and the results are expressed as absolute g pdx-1/kg Actin expression+/−SD.
We evaluated individual early and late factors. […] This revised protocol differs from the initial 20-day protocol only in the nature of the early and late factors used. This 2 EF-3 LF protocol included the early factors Activin A (50 ng/ml) and BMP-4 (50 ng/ml). The cells were cultured in the early factors as previously described from day 0 to day 10. The 2 EF-3 LF protocol included the late factors HGF (50 ng/ml), exendin-4 (10 ng/ml), and β-cellulin (50 ng/ml).
RNA isolation, cDNA synthesis, and quantitative PCR: Total RNA from hESC or EBs at various stages of differentiation was isolated using the Qiagen RNeasy kit or prepared using Trizol reagent (Invitrogen) according to the manufacturer's instructions. RNA was and quantified by UV absorption. 1 to 5 μg of RNA was DNase I treated and converted to cDNA using M-MuLV reverse transcriptase (New England Biolabs) using oligo-dT or random hexamer primers according to the manufacturer's instructions. Quantitative PCR was performed according to the manufacturer's instructions using a BioRad iCycler with approximately 50 ng cDNA per reaction containing 250 nM of each primer and 1×SYBR green master mix (Bio-Rad) and analyzed by Bio-RAD thermocycler.
Standard curves were generated by plotting the log (concentration in fg) of series of 100-fold dilutions of the target PCR amplicon (a range of 10^4 fg to 1 fg per reaction) versus the corresponding threshold Ct value. Normalized expression was determined by the following equation: Normalized expression=(input of target gene/input of actin control), where input is calculated as the inverse log of ((the threshold cycle (Ct value)—Y-intercept of standard curve)/slope of standard curve).

| Molecule | contribution of the factor to induction of pdx-1 expression | contribution of the factor to induction of pdx-1 expression (listed as nodal) | contribution of the factor to induction of pdx-1 expression (listed as betacellulin) |
| --- | --- | --- | --- |
| Nodal: TGF-β-related ligand, evolutionarily conserved endoderm inducer; recombinant protein (protein, UniProt Q96S42 238-347, looked up) Nodal homolog: HHLPDRSQLCRKVKFQVDFNLIGWGSWIIYPKQYNAYRCEGECPNPVGEEFHPTNHAYIQSLLKRYQPHRVPSTCCAPVKTKPLSMLYVDNGRVLLDHHKDMIVEECGCL | little effect; also recorded: does not significantly improve | optional | – |
| BMP4: early factor, growth factor, 50 ng/ml (protein, UniProt P12644 293-408, looked up) Bone morphogenetic protein 4: SPKHHSQRARKKNKNCRRHSLYVDFSDVGWNDWIVAPPGYQAFYCHGDCPFPLADHLNSTNHAIVQTLVNSVNSSIPKACCVPTELSAISMLYLDEYDKVVLKNYQEMVVEGCGCR | important components | – | – |
| Beta-cellulin: late factor growth factor, 50 ng/ml (protein, UniProt P35070 32-111, looked up) Betacellulin: DGNSTRSPETNGLLCGDPEENCAATTTQSKRKGHFSRCPKQYKHYCIKGRCRFVVAEQTPSCVCDEGYIGARCERVDLFY | important component | – | optional |
| Activin A: early factor, TGF-β related growth factor, 50 ng/ml (protein, UniProt P08476 311-426, looked up, Inhibin beta A chain, early factor, TGF-β related growth factor, 50 ng/ml) Inhibin beta A chain: GLECDGKVNICCKKQFFVSFKDIGWNDWIIAPSGYHANYCEGECPSHIAGTSGSSLSFHSTVINHYRMRGHSPFANLKSCCVPTKLRPMSMLYYDDGQNIIKKDIQNMIVEECGCS | important components | – | – |
